Measured values published in patent US11278600B2, “Human alpha-galactosidase variants” (Codexis, Inc., priority 2014, dated 2022).
Numbering of substitutions follows the chain as printed.

B1: 85 (protein)
chain: LDNGLARTPTMGWLHWERFMCNLDCQEEPDSCISEKLFMEMAELMVSEGWKDAGYEYLCIDDCWMAPQRDSEGRLQADPQRFPHGIRQLANYVHSKGLKLGIYADVGNKTCAGFPGSFGYYDIDAQTFADWGVDLLKFDGCYCDSLENLADGYKHMSLALNRTGRSIVYSCEWPLYMWPFQKPNYTEIRQYCNHWRNFADIDDSWKSIKSILDWTSFNQERIVDVAGPGGWNDPDMLVIGNFGLSWNQQVTQMALWAIMAAPLFMSNDLRHISPQAKALLQDKDVIAINQDPLGKQGYQLRQGDNFEVWERPLSGLAWAVAMINRQEIGGPRSYTIAVASLGKGVACNPACFITQLLPVKRKLGFYEWTSRLRSHINPTGTVLLQLENTMQMSKGLLL
modifications: Synthetic Polypeptide sequence of Variant No. 85 of mature Human GLA
B2: 99 (protein)
chain: B1 chain with L23M, G395D
modifications: Synthetic Polypeptide sequence of Variant No. 99 of mature Human GLA
B3: 97 (protein)
chain: B1 chain with L158M, G395D
modifications: Synthetic Polypeptide sequence of Variant No. 97 of mature Human GLA
B4: 86 (protein)
chain: B1 chain with G395P
modifications: Synthetic Polypeptide sequence of Variant No. 86 of mature Human GLA
B5: 93 (protein)
chain: B1 chain with K96R, G395D, L397V
modifications: Synthetic Polypeptide sequence of Variant No. 93 of mature Human GLA
B6: 87 (protein)
chain: B1 chain with G395R
modifications: Synthetic Polypeptide sequence of Variant No. 87 of mature Human GLA
B7: 88 (protein)
chain: B1 chain with G395S
modifications: Synthetic Polypeptide sequence of Variant No. 88 of mature Human GLA
B8: 96 (protein)
chain: B1 chain with L158I, G395D
modifications: Synthetic Polypeptide sequence of Variant No. 96 of mature Human GLA
B9: 90 (protein)
chain: B1 chain with K96I, G395D
modifications: Synthetic Polypeptide sequence of Variant No. 90 of mature Human GLA
B10: 94 (protein)
chain: B1 chain with L100F, G395D
modifications: Synthetic Polypeptide sequence of Variant No. 94 of mature Human GLA
B11: 98 (protein)
chain: B1 chain with L158R, G395D
modifications: Synthetic Polypeptide sequence of Variant No. 98 of mature Human GLA
B12: 89 (protein)
chain: B1 chain with G395T
modifications: Synthetic Polypeptide sequence of Variant No. 89 of mature Human GLA
B13: 100 (protein)
chain: B1 chain with L23T, G395D
modifications: Synthetic Polypeptide sequence of Variant No. 100 of mature Human GLA
B14: 91 (protein)
chain: B1 chain with K96L, G395D
modifications: Synthetic Polypeptide sequence of Variant No. 91 of mature Human GLA
B15: 92 (protein)
chain: B1 chain with K96R, G395D
modifications: Synthetic Polypeptide sequence of Variant No. 92 of mature Human GLA
B16: 95 (protein)
chain: B1 chain with L158A, G395D
modifications: Synthetic Polypeptide sequence of Variant No. 95 of mature Human GLA

Assay: HTP-analysis of supernatants pretreated with acid (MUGal hydrolysis)
Format: biochemical
Conditions: challenge at pH 4.2; activity of the variant/activity of WT GLA (SEQ ID NO: 5); yeast supernatant
Method in brief: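 GLA variants were secreted from INVSc1 yeast grown 66-84 h at 30° C. in SD-Ura with 2% glucose; supernatants were mixed with McIlvaine buffer pH 3.3-4.3 and held at 37° C. for 1-3 h. Residual activity on MUGal at pH 4.8 was then measured by fluorescence.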

Molecule | Relative Activity of GLA Variants After Challenge at pH 4.2
B1 | + (+ = 0.5 to 1.5 relative activity over WT GLA (SEQ ID NO: 5))
B2 | + (+ = 0.5 to 1.5 relative activity over WT GLA (SEQ ID NO: 5))
B3 | + (+ = 0.5 to 1.5 relative activity over WT GLA (SEQ ID NO: 5))
B4 | ++ (++ = >1.5 to 2.5 relative activity over WT GLA (SEQ ID NO: 5))
B5 | +++ (+++ = >2.5 relative activity over WT GLA (SEQ ID NO: 5))
B6 | ++ (++ = >1.5 to 2.5 relative activity over WT GLA (SEQ ID NO: 5))
B7 | ++ (++ = >1.5 to 2.5 relative activity over WT GLA (SEQ ID NO: 5))
B8 | + (+ = 0.5 to 1.5 relative activity over WT GLA (SEQ ID NO: 5))
B9 | + (+ = 0.5 to 1.5 relative activity over WT GLA (SEQ ID NO: 5))
B10 | + (+ = 0.5 to 1.5 relative activity over WT GLA (SEQ ID NO: 5))
B11 | + (+ = 0.5 to 1.5 relative activity over WT GLA (SEQ ID NO: 5))
B12 | + (+ = 0.5 to 1.5 relative activity over WT GLA (SEQ ID NO: 5))
B13 | + (+ = 0.5 to 1.5 relative activity over WT GLA (SEQ ID NO: 5))
B14 | + (+ = 0.5 to 1.5 relative activity over WT GLA (SEQ ID NO: 5))
B15 | + (+ = 0.5 to 1.5 relative activity over WT GLA (SEQ ID NO: 5))
B16 | + (+ = 0.5 to 1.5 relative activity over WT GLA (SEQ ID NO: 5))

Assay: HTP-analysis of supernatants pretreated with base (MUGal hydrolysis)
Format: biochemical
Conditions: challenge at pH 7.1; activity of the variant/activity of WT GLA (SEQ ID NO: 5); yeast supernatant
Method in brief: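 GLA variants secreted from yeast INVSc1; culture supernatants pre-incubated with McIlvaine buffer pH 7.0–8.2 or 200 mM bicarbonate pH 9.1–9.7 at 37° C. for 1–18 h. Residual activity: MUGal (4 mM stock) hydrolysis at pH 4.3–4.8, 37° C., 30–180 min, carbonate quench; fluorescence Ex 355/Em 448 nm.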

Molecule | Relative Activity of GLA Variants After Challenge at pH 7.1
B1 | + (+ = 0.5 to 1.5 relative activity over WT GLA (SEQ ID NO: 5))
B2 | + (+ = 0.5 to 1.5 relative activity over WT GLA (SEQ ID NO: 5))
B3 | + (+ = 0.5 to 1.5 relative activity over WT GLA (SEQ ID NO: 5))
B4 | ++ (++ = >1.5 to 2.5 relative activity over WT GLA (SEQ ID NO: 5))
B5 | + (+ = 0.5 to 1.5 relative activity over WT GLA (SEQ ID NO: 5))
B6 | + (+ = 0.5 to 1.5 relative activity over WT GLA (SEQ ID NO: 5))
B7 | + (+ = 0.5 to 1.5 relative activity over WT GLA (SEQ ID NO: 5))
B8 | + (+ = 0.5 to 1.5 relative activity over WT GLA (SEQ ID NO: 5))
B9 | + (+ = 0.5 to 1.5 relative activity over WT GLA (SEQ ID NO: 5))
B10 | + (+ = 0.5 to 1.5 relative activity over WT GLA (SEQ ID NO: 5))
B11 | + (+ = 0.5 to 1.5 relative activity over WT GLA (SEQ ID NO: 5))
B12 | + (+ = 0.5 to 1.5 relative activity over WT GLA (SEQ ID NO: 5))
B13 | + (+ = 0.5 to 1.5 relative activity over WT GLA (SEQ ID NO: 5))
B14 | ++ (++ = >1.5 to 2.5 relative activity over WT GLA (SEQ ID NO: 5))
B15 | + (+ = 0.5 to 1.5 relative activity over WT GLA (SEQ ID NO: 5))
B16 | + (+ = 0.5 to 1.5 relative activity over WT GLA (SEQ ID NO: 5))

Assay: HTP-analysis of yeast culture supernatants, no challenge (MUGal hydrolysis)
Format: biochemical
Conditions: activity of the variant/activity of WT GLA (SEQ ID NO: 5), yeast supernatant
Method in brief: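 GLA variants expressed in yeast INVSc1, secreted into SD-Ura broth over 66-84 h at 30° C; clarified supernatants tested without challenge. Supernatant mixed with McIlvaine buffer pH 4.8 and 2 mM MUGal (citrate/KCl, pH 4.6), 37° C for 30-180 min, carbonate-quenched, fluorescence Ex 355/Em 448 nm.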

Molecule | Relative Activity of GLA Variants After No Challenge (NC)
B1 | + (+ = 0.5 to 1.5 relative activity over WT GLA (SEQ ID NO: 5))
B2 | + (+ = 0.5 to 1.5 relative activity over WT GLA (SEQ ID NO: 5))
B3 | + (+ = 0.5 to 1.5 relative activity over WT GLA (SEQ ID NO: 5))
B4 | ++ (++ = >1.5 to 2.5 relative activity over WT GLA (SEQ ID NO: 5))
B5 | ++ (++ = >1.5 to 2.5 relative activity over WT GLA (SEQ ID NO: 5))
B6 | + (+ = 0.5 to 1.5 relative activity over WT GLA (SEQ ID NO: 5))
B7 | + (+ = 0.5 to 1.5 relative activity over WT GLA (SEQ ID NO: 5))
B8 | + (+ = 0.5 to 1.5 relative activity over WT GLA (SEQ ID NO: 5))
B9 | + (+ = 0.5 to 1.5 relative activity over WT GLA (SEQ ID NO: 5))
B10 | + (+ = 0.5 to 1.5 relative activity over WT GLA (SEQ ID NO: 5))
B11 | + (+ = 0.5 to 1.5 relative activity over WT GLA (SEQ ID NO: 5))
B12 | ++ (++ = >1.5 to 2.5 relative activity over WT GLA (SEQ ID NO: 5))
B13 | + (+ = 0.5 to 1.5 relative activity over WT GLA (SEQ ID NO: 5))
B14 | + (+ = 0.5 to 1.5 relative activity over WT GLA (SEQ ID NO: 5))
B15 | + (+ = 0.5 to 1.5 relative activity over WT GLA (SEQ ID NO: 5))
B16 | + (+ = 0.5 to 1.5 relative activity over WT GLA (SEQ ID NO: 5))
